Measurements published in the nanobody polyreactivity screen of Harvey et al. (2022).

Test: yeast display, Sf9 membrane polyspecificity reagent, FACS + sequencing; frameworks hold sequencing errors
Outline: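 Genes from sorted yeast were amplified by colony PCR, read by MiSeq 2 × 250 sequencing and filtered on CDR length. These cells carried a synthetic nanobody library in Saccharomyces cerevisiae BJ5465 and were sorted by FACS into low and high (top ~1%) gates on anti-HA and streptavidin fluorescence. Polyreactivity is labelled according to the gate of origin.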

Sequence	polyreactivity (PSR sort gate)
QVQLVESGGGLVKAGGSLRLSCAASGRIFKYYAMGWYRQAPGKERELVAAISSVGSTNYADSVKGRFTISRDNAKNTVYLQMNSLKPEDTGVYYCAAPYQHYDVNYDSWGQGTQVTVSS	low polyreactivity
QVQLVESGGGLVKAGGSLRLSCAASGRIFTANAMGWYRQAPGKEREFVAAITTSDGTYYADSVKGRFTISRDNAKNTVYLQMNSLKPEDTAVYYGATDTATYPTAMDYWGQGTQVTVSS	low polyreactivity
QVQLVESGGGLVKAGGSLRLSCAASGRIFVGYGMGWYRQAPGKERELVAAITSSGGSTYYADSVKGRFTISRDNAKNTVYLQMNILKPEDTAVYYCAAERGYHVGGSGLYDYWGQGTQVNVSS	low polyreactivity
QVQLVESGGGLVKAGGSLRLSCAASGRIIEKYAMGWYRQAHGKEREFVAAIDWSGGSTYYADSVKGRFTISRDNAKNTVSLQKNSLKPEDTAVYYCAAYWYYEDGQSEARLYGYDYWGQGTQVTVSS	low polyreactivity
QVQLVESGGGLVKAGGSLRLSCAASGRTFASYAMGWYRQAPGKERELVAVITRGGRTYYADSVKGRFTISRDNAKNTVYLQMNSLKPEDTAVYYCNAAYYSSSYLEDYWGQGTQVTVSS	high polyreactivity
QVQLVESGGGLVKAGGSLRLSCAASGRTFGDNAMGWYRQAPGKERELVAAIRWGGGSTYYADSVKGRFTISRDNAKNTVYLQMNSLKPEDTAVYYCAKKGWSSHDRAWYIYDYWGQGSQVTVSS	low polyreactivity
QVQLVESGGGLVKAGGSLRLSCAASGRTFSRYAMGWYRQAPGTEGEVVAAISYSGASTYYADSVKGRFTISRDNAKNTVYLQMNSLKPEDTAVSYCAARAPGPAPPQIRYGYWGQGTQVTVSS	high polyreactivity
QVQLVESGGGLVKAGGSLRLSCAASGRTFVYNAMGWYRQAPGKERELVADIDGGGDRTYYADSVKGRFTISRDNAKNKVFLQMNSLKPEDTAVYYCARDPGDTYYYSYPEGDYWGQGTQVTVSS	low polyreactivity
QVQLVESGGGLVKAGGSLRLSCAASGRTFYVNAMGWYRQAPGKEREFVAAISRRGGSTYYADSVKGRFTISRDNAKNTVYFQLNSLKPEDTAVYYCATGYHRWSSWALDYWGQGTQVTVSS	high polyreactivity
QVQLVESGGGLVKAGGSLRLSCAASGSIFDGNAMGWYRQAPGKERELVADISRGGSTYYADSVKGRFTISRDNAKNTVYLLMNSLKPEDTAVYYCNVEFFFWPYEYGYWGQGTQVTVSS	low polyreactivity
QVQLVESGGGLVKAGGSLRLSCAASGSIFQSNAMGWYRQAPGKERELVAAIRTSSGGGTYADSVKGRFTISRDNAKNTVYLQINSLKPEDTAVYDCNARKNNGGKWGYDYWGQGTQVTVSS	high polyreactivity
QVQLVESGGGLVKAGGSLRLSCAASGSIIGFYAMGWYILAPGKERELVAAITRGGGSTFYADSVKGRFTFSRDNAKNTVYLQMNSLKPEDTAVYYCAATVYRYHGPGYYYWGQGTQVTVSS	high polyreactivity
QVQLVESGGGLVKAGGSLRLSCAASGSISSGYVMGWYRQAPGKERELVASISYSGTSTYYADSVKGRFTISRDNAKNTVYLQMNSLKPEDTAVYYCAALSRRRFGYWGQGTQVTVSS	high polyreactivity
QVQLVESGGGLVKAGGSLRLSCAASGSTFERYAMGCYRQAPGKEMELVAAINWSGGGTYYADSVKGRFTISRDNAKNTVYLQMNSLKPVDTAVYYCAADSGTVVFSLWWYEYYYWGQGTQVTVSS	low polyreactivity
QVQLVESGGGLVKAGGSLRLSCAASGSTFRYYVMGWYRQAPGNERELVAAISRGGRTYYADSVKGRFTISRDNAKYSVYLQMNSLKPEDTAVYYCAVDYIVQSGSRIAGDYWGQGTQVTVSS	high polyreactivity
QVQLVESGGGLVKAGGSLRLSCAASGSTFVGYAMGWYRQAPGKEREIVAAITRGGSTNYADSVKGRFTISRDNAKNTVYLQMNSLKPEDTAVYYCAARDRREGFNFDYWGQGTQVTVSS	low polyreactivity

Sequence	polyreactivity (PSR sort gate)
QVQLVESGGGLVKAGGSLRLSCAASGYNFIVYTMGWYRQAPGKERELVAAISSGGITDYADSVKGRFTISRDNAKNTDYLQMNSLNPEDTAVYYWGQGTQVTVSS	low polyreactivity
QVQLVESGGGLVKAGGSLRLSCAASGYTFLFNVMGWYRQAPGKEREIFATIRYSGGSTYYADSVKGRFTISRDNAKNTVYLQMNSLKPEDTAVYYCAARYAWYTSYCSRKYDYWGQGTQVTVSS	high polyreactivity
QVQLVESGGGLVKAGGSLRLSCAASGYTFRSYAMGWYRQAPGKEREKVARITFRGTSTYADSVKGRFTISRDNAKNTVYLQMNSLKPEESAVYYCNTSRAPWGNGYKRYDYWGQGTQVTVSS	low polyreactivity
QVQLVESGGGLVKAGGSLRLSCDASGSILWENAMGWYRQAPGKERELVATISVSGGGTYYADSVKGRFTISRDNAKNTVYLQMNSLKPEDTAVYYCNARYGNESQGWEDYWGKGTQVTVSS	low polyreactivity
QVQLVESGGGLVKAGGSLRLSCSASGSTFRSNAMGWYRQAPGKERELVAGISSGGGTYYADSVKGRFTISRDNAKNTVYLQMNSLKPEDTAVYYCAKVVYFGWSVQYYYWGQGTQVTVSS	low polyreactivity
QVQLVESGGGLVKAGGSLRLTCAASGSIFRYYAMGWYRQAPGKERELVAAISGSGGSTYYADSVKGRFTISRDNAKNTVYLQMNSLKPEDTAVYYCARVRGCYDKMYYWGQGTQVTVSS	high polyreactivity
QVQLVESGGGLVKAGGSLSLICAASGFTFGVYAMGRYRQAPGKERELVAAIRRTGGSTYYADSVKGRFTISRDNAKNTVYLQMNSLKPEDTAVYYCAAHAISYQSRYRYRYGSVDYWGQGTQVTVSS	high polyreactivity
QVQLVESGGGLVKAGGSLSLSCAASGFTVYRYTMGWYRPAPGKEREVVARITYSGGSTYYADSVKVRFTISRDNAKNTVYLQLYCLKPVDSAVYYCNARSDFYSRYGYKYDYWGQGTQVTVSS	high polyreactivity
QVQLVESGGGLVLAGGSLRLICAGSGRIFYTNTMGWYRQAPWKGRELVAAIRSGTRTYYADSVKGRFTISRDNAKNTFYLLMNILKPEATAVYYCAAYYSYYGGDYWGQGTQVTVSS	low polyreactivity
QVQLVESGGGLVLAGGSLRLSCAASGRILGSYAMGWYRQAPGKERELVAGISWRGGRTSYADSVKGRFTISRDNAKNPVYLQMNSLKPEDTAVYYCATRSSSRKYGYWGQGTQVTVSS	high polyreactivity
QVQLVESGGGLVLAGGSLRLSCAASGRIYVFYAMGWYRQAPGKEREFVATISYSGDTTYYADSVKGRFTISRDNAKNTVYLQMNSLTPEDTAVYYCAADQVPSYYYVPLGYDSWGQGTQVTVSS	low polyreactivity
QVQLVESGGGLVLAGGSLRLSCAASGRTFELNALGWYRQAPGKERELVAAISWSGGSTYYADSVKGRFTISRDNAKNTVYLQMNSLKPEDTSVYYCAAQYQQGPFVKYYYWGQGPQVTVSS	high polyreactivity
QVQLVESGGGLVLAGGSLRLSCAASGSTFGDYAMGWYRQAPGNERELVAAISARGASTYYADSVKGRFTISRDNAKNTVYLQMNSLKPEDTAVYYCAARYVSSGRRFDYWGQGTQVTVSS	high polyreactivity
QVQLVESGGGLVLAGGSLRLSCAASGSTFTIYALGWYRQAPVKQRELVAAITSGGSTYADSVKRRFTISRDNAKNTVYLEMNSLKPEETAVDYCATVTFSHAQRTWYDYWGQGSQVTVSS	high polyreactivity
QVQLVESGGGLVLAGGSLRLSCAASGTIFGYYAMGWYRQAPGKDRELVAAITSDGDTYYADSVKGRFTISRDNAKNTVYLQMNSLKPEDTAVYYCNATYGGPYYIQYDYWGQGTQVTVSS	low polyreactivity
QVQLVESGGGLVLAGGSLSLSCAASGSIFNWYAMGWYRKAHGKERELVAAISWRGGSTYYADSVKGRFTISRDNAINSVYFQMNSLKPEDTAVYYCASDGGGDHMDYWGQGTQVSVSS	high polyreactivity
